The results in this text go back to article PMC8500521.

This experiment addresses HR2 (heptad repeat 2) polypeptide of SARS-CoV-2 spike protein (SARS-CoV-2) (UniProt P0DTC2). Briefly: AUC; sedimentation velocity, 50,000 rpm, 20 C, 50 mM NaCl, 25 mM sodium phosphate pH 6.0, no detergent; monomer to tetramer.

As for “HR2 (heptad repeat 2) polypeptide of SARS-CoV-2 spike protein (from UniProt P0DTC2 1171-1207) (domain or fragment)”, the monomer population at 250 uM amounted to 10% and the stoichiometry N (usually the number of molecules, sites or subunits per partner or assembly) is 4.
